Test results reported in article PMC9190012, “Heparin activation of protein Z-dependent protease inhibitor (ZPI) allosterically blocks protein Z activation through an extended heparin-binding site” (The Journal of Biological Chemistry, 2022).

Legend:
Type in all cases: biochemical
FXa [1] = biological target: T1, FXa (Homo sapiens, UniProt P00742); test: Unaccelerated ZPI–FXa reactions: kinetics and stoichiometry of inhibition; conditions: for ka,app: absence of PZ, 2.5 mM CaCl2, pH 7.4, 25 °C
T1 construct: purchased Enzyme Research Laboratories
Method: (§1) Apparent second-order rate constants for unaccelerated and H50-accelerated ZPI–FXa reactions were measured in the absence and presence of the optimal H50 concentration under pseudo–first-order conditions by analyzing full ZPI–FXa reaction progress curves over the ZPI concentration range of 10 to 900 nM with ∼0.5 nM FXa. Full reaction progress curves were also measured for ZPI–FXa reactions in the presence of PZ equimolar with ZPI, 25 μM lipid, and 5 mM CaCl2, as a function of the ZPI concentration in the range of 10 to 40 nM. Identical reaction mixtures were quenched at varying reaction times with substrate, and the time course of protease inactivation was measured from the decrease in initial rates of substrate hydrolysis. The first-order rate of decrease in protease activity with time was computer fit by a single exponential decay function with a nonzero end point and kobs obtained from the fitted exponential decay constant. Apparent second-order association rate constants (ka,app) were obtained from the slopes of linear plots of kobs versus the ZPI concentration according to the equation, kobs=kd+ka,app × [ZPI]0
(§2) In which kd represents the rate constant for ZPI–FXa complex dissociation and [ZPI]o is the total ZPI concentration. kd was fixed at the experimentally determined value of 10^−4 s^−1 for WT and ZPI mutants as described ([18]).
(§3) Fixed concentrations of FXa (50–100 nM FXa) were reacted with increasing concentrations of ZPI, ranging from a approximately threefold to sevenfold molar excess, in the absence of cofactors or in the presence of either 1 μM H50 or PZ equimolar with ZPI, 25 μM lipid, and 5 mM CaCl2, in kinetics buffer at 25 °C in reaction volumes of 50 μl. After allowing sufficient time to reach a reaction end point, based on measured second-order associate rate constants (∼5–30 min), remaining proteolytic activity was measured by reacting an aliquot (5–20 μl) of the reaction mixtures with 1 ml of 100 μM Spectrozyme fXa (American Diagnostica) containing 50 μg/ml Polybrene and 5 mM EDTA and monitoring the rate of absorbance change at 405 nm. The apparent SI was determined from the fitted abscissa intercept of a linear plot of residual protease activity against the molar ratio of inhibitor to protease ([18]). Because the ZPI–PZ complex dissociates to a small extent over the reaction time, apparent SIs depend on the time of incubation. To correct for such complex dissociation, apparent SIs were multiplied by the factor, exp (−kd × t), where kd is the measured complex dissociation rate constant of 10^−4 s^−1 and t the fixed reaction time. Simulations verified the validity of this correction for small extents of dissociation. Reported SIs are average values of at least two independent measurements at different reaction times.

FXa [2] = biological target: T1, FXa; test: PZ-accelerated ZPI–FXa reactions: kinetics and stoichiometry of inhibition; conditions: for SI / ka,app × SI / ka,app × SI relative to WT: PZ-accelerated; for ka,app: equimolar PZ, 25 μM phospholipid, 5 mM CaCl2, pH 7.4, 25 °C; for PZ enhancement: ratio of PZ-accelerated to unaccelerated ka,app × SI
Method: as §1, §2, §3

FXa [3] = biological target: T1, FXa; test: H50 heparin-accelerated ZPI–FXa reactions: kinetics and stoichiometry of inhibition; conditions: for SI / ka,app × SI / ka,app × SI relative to WT: 1 μM H50; for ka,app: 1 μM H50, 2.5 mM CaCl2, pH 7.4, 25 °C; for H50 rate enhancement: ratio of heparin-accelerated to unaccelerated ka,app × SI
Method: Heparin accelerating effects on the kinetics of ZPI–FXa reactions were evaluated as a function of heparin concentration under pseudo–first-order conditions (i.e., with a large molar excess of inhibitor over protease) by incubating reaction mixtures of 100 μl containing 70 nM ZPI and ∼0.5 nM FXa in the absence or presence of varying levels of H50 ranging from 10^−9 to 10^−4 M in 20 mM Tris buffer (pH 7.4), 0.1 M NaCl, 0.1% PEG 8000, 0.1 mg/ml BSA, and 2.5 mM CaCl2 at 25 °C for reaction times of 2 to 5 min. Reactions were quenched by adding 1 ml of 50 μM Pefafluor FXa substrate (Centerchem, Inc) containing 50 μg/ml polybrene and 5 mM EDTA. The initial linear rate of substrate hydrolysis was monitored at an excitation wavelength of 380 nm and an emission wavelength of 440 nm. The observed pseudo–first-order rate constant for reactions (kobs) was calculated from the equation, kobs=In([vo-v∞]/[vt-v∞])/t
where vt and v∞ are the initial velocities of protease hydrolysis of the substrate after reaction with ZPI for the fixed reaction time and after reaching the reaction end point, respectively, vo is the velocity measured in control reactions without ZPI, and t is the fixed reaction time. The dependence of kobs on heparin concentration was computer fit by nonlinear least squares analysis by the ternary complex bridging model equation ([10]).
as §1, §2
as §3, with “Simulations verified the validity of this correction for small extents of dissociation. Reported SIs are average values of at least two independent measurements at different reaction times.” left out

T1 sequence (P00742 235-488 limits assumed): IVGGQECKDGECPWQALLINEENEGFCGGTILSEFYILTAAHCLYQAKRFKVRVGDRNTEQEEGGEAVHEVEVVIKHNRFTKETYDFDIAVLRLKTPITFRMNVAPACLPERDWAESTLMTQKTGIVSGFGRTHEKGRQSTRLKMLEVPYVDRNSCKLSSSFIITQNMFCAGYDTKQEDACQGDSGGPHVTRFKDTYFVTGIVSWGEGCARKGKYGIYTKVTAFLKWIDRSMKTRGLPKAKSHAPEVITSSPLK
T1 sequence (P00742 41-179 limits assumed): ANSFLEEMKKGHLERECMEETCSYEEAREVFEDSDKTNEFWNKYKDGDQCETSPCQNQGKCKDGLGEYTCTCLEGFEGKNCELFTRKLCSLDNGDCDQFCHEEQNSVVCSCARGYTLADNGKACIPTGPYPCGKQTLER

SI (FXa [1])	ka,app × SI (FXa [1])	ka,app × SI relative to WT (FXa [1])	ka,app (FXa [1])	SI (FXa [2])	ka,app × SI (FXa [2])	ka,app × SI relative to WT (FXa [2])	ka,app (FXa [2])	PZ enhancement (FXa [2])	SI (FXa [3])	ka,app × SI (FXa [3])	ka,app × SI relative to WT (FXa [3])	ka,app (FXa [3])	H50 rate enhancement (FXa [3])	Molecule
2.9 ± 0.2 moles ZPI/mole FXa	1.7 ± 0.1 × 10^4 M^−1 s^−1	(1.1)	5.8 ± 0.1 × 10^3 M^−1 s^−1	2.7 ± 0.1 moles ZPI/mole FXa	2.6 ± 0.1 × 10^7 M^−1 s^−1	(0.59)	9.5 ± 0.1 × 10^6 M^−1 s^−1	1524	2.2 ± 0.3 moles ZPI/mole FXa	5.4 ± 0.9 × 10^5 M^−1 s^−1	(0.45)	2.4 ± 0.1 × 10^5 M^−1 s^−1	~32 fold	K308A: ZPI helix H site mutant (protein, UniProt Q9UK55 22-444, looked up, variant K308A) Protein Z-dependent protease …: LAPSPQSPETPAPQNQTSRVVQAPKEEEEDEQEASEEKASEEEKAWLMASRQQLAKETSNFGFSLLRKISMRHDGNMVFSPFGMSLAMTGLMLGATGPTETQIKRGLHLQALKPTKPGLLPSLFKGLRETLSRNLELGLTQGSFAFIHKDFDVKETFFNLSKRYFDTECVPMNFRNASQAKRLMNHYINKETRGKIPKLFDEINPETKLILVDYILFKGKWLTPFDPVFTEVDTFHLDKYKTIKVPMMYGAGKFASTFDKNFRCHVLKLPYQGNATMLVVLMEKMGDHLALEDYLTTDLVETWLRNMATRNMEVFFPKFKLDQKYEMHELLRQMGIRRIFSPFADLSELSATGRNLQVSRVLQRTVIEVDERGTEAVAGILSEITAYSMPPVIKVDRPFHFMIYEETSGMLLFLGRVVNPTLL
1.7 ± 0.1 moles ZPI/mole FXa	6.3 ± 0.3 × 10^3 M^−1 s^−1	(0.39)	3.7 ± 0.1 × 10^3 M^−1 s^−1	5.6 ± 0.1 moles ZPI/mole FXa	2.9 ± 0.2 × 10^7 M^−1 s^−1	(0.66)	5.2 ± 0.2 × 10^6 M^−1 s^−1	4603	4.9 ± 0.2 moles ZPI/mole FXa	5.6 ± 0.8 × 10^5 M^−1 s^−1	(0.47)	1.2 ± 0.1 × 10^5 M^−1 s^−1	~89 fold	K125A/R128A: ZPI mutant of helix D residues (protein, UniProt Q9UK55 22-444, looked up, variant K125A R128A) Protein Z-dependent protease …: LAPSPQSPETPAPQNQTSRVVQAPKEEEEDEQEASEEKASEEEKAWLMASRQQLAKETSNFGFSLLRKISMRHDGNMVFSPFGMSLAMTGLMLGATGPTETQIKRGLHLQALKPTKPGLLPSLFAGLAETLSRNLELGLTQGSFAFIHKDFDVKETFFNLSKRYFDTECVPMNFRNASQAKRLMNHYINKETRGKIPKLFDEINPETKLILVDYILFKGKWLTPFDPVFTEVDTFHLDKYKTIKVPMMYGAGKFASTFDKNFRCHVLKLPYQGNATMLVVLMEKMGDHLALEDYLTTDLVETWLRNMKTRNMEVFFPKFKLDQKYEMHELLRQMGIRRIFSPFADLSELSATGRNLQVSRVLQRTVIEVDERGTEAVAGILSEITAYSMPPVIKVDRPFHFMIYEETSGMLLFLGRVVNPTLL
2.7 ± 0.2 moles ZPI/mole FXa	1.0 ± 0.2 × 10^4 M^−1 s^−1	(0.62)	3.8 ± 0.3 × 10^3 M^−1 s^−1	2.9 ± 0.2 moles ZPI/mole FXa	2.7 ± 0.6 × 10^7 M^−1 s^−1	(0.61)	9.4 ± 1.4 × 10^6 M^−1 s^−1	2700	1.9 ± 0.2 moles ZPI/mole FXa	3.5 ± 0.5 × 10^5 M^−1 s^−1	(0.29)	1.8 ± 0.1 × 10^5 M^−1 s^−1	~35 fold	R310A: ZPI helix H site mutant (protein, UniProt Q9UK55 22-444, looked up, variant R310A) Protein Z-dependent protease …: LAPSPQSPETPAPQNQTSRVVQAPKEEEEDEQEASEEKASEEEKAWLMASRQQLAKETSNFGFSLLRKISMRHDGNMVFSPFGMSLAMTGLMLGATGPTETQIKRGLHLQALKPTKPGLLPSLFKGLRETLSRNLELGLTQGSFAFIHKDFDVKETFFNLSKRYFDTECVPMNFRNASQAKRLMNHYINKETRGKIPKLFDEINPETKLILVDYILFKGKWLTPFDPVFTEVDTFHLDKYKTIKVPMMYGAGKFASTFDKNFRCHVLKLPYQGNATMLVVLMEKMGDHLALEDYLTTDLVETWLRNMKTANMEVFFPKFKLDQKYEMHELLRQMGIRRIFSPFADLSELSATGRNLQVSRVLQRTVIEVDERGTEAVAGILSEITAYSMPPVIKVDRPFHFMIYEETSGMLLFLGRVVNPTLL
2.3 ± 0.2 moles ZPI/mole FXa	1.2 ± 0.2 × 10^4 M^−1 s^−1	(0.75)	5.0 ± 0.3 × 10^3 M^−1 s^−1	3.3 ± 0.1 moles ZPI/mole FXa	2.0 ± 0.1 × 10^7 M^−1 s^−1	(0.45)	6.2 ± 0.1 × 10^6 M^−1 s^−1	1733	2.4 ± 0.1 moles ZPI/mole FXa	9.2 ± 0.9 × 10^5 M^−1 s^−1	(0.77)	3.9 ± 0.2 × 10^5 M^−1 s^−1		K284A: ZPI helix H site mutant (protein, UniProt Q9UK55 22-444, looked up, variant K284A) Protein Z-dependent protease …: LAPSPQSPETPAPQNQTSRVVQAPKEEEEDEQEASEEKASEEEKAWLMASRQQLAKETSNFGFSLLRKISMRHDGNMVFSPFGMSLAMTGLMLGATGPTETQIKRGLHLQALKPTKPGLLPSLFKGLRETLSRNLELGLTQGSFAFIHKDFDVKETFFNLSKRYFDTECVPMNFRNASQAKRLMNHYINKETRGKIPKLFDEINPETKLILVDYILFKGKWLTPFDPVFTEVDTFHLDKYKTIKVPMMYGAGKFASTFDKNFRCHVLKLPYQGNATMLVVLMEAMGDHLALEDYLTTDLVETWLRNMKTRNMEVFFPKFKLDQKYEMHELLRQMGIRRIFSPFADLSELSATGRNLQVSRVLQRTVIEVDERGTEAVAGILSEITAYSMPPVIKVDRPFHFMIYEETSGMLLFLGRVVNPTLL
